In publication PMC9482650, “Quantitative fragmentomics allow affinity mapping of interactomes” (Nature Communications, 2022):

Target: LNX1_1, Q8TBB1
Experiment: holdup assay
Design: key: below the threshold = too weak to quantify, mostly under pKd 3.1 to 4
Conditions: plain residues with an end cap or a label only (N-terminal biotin on a linker: ado-ado)

Sequence of LNX1_1, Q8TBB1 (Q8TBB1 261-371): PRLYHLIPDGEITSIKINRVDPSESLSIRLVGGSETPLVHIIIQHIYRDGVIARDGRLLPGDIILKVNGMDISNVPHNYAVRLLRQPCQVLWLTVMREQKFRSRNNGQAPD

| Binder | pKd |
| --- | --- |
| QGPVETESVV [SLC45A4, Q5BKX6] | 3.95 |
| TKGPRGPTRV [SAPCD1, Q5SSQ6] | below the threshold |

Target: FRMPD4, Q14CM0
Sequence (Q14CM0 67-160): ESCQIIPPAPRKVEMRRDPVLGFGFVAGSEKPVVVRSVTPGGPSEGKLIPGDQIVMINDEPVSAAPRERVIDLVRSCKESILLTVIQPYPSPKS
Experiment: holdup assay
Design: key: below the threshold = too weak to quantify, mostly under pKd 3.1 to 4
Conditions: plain residues with an end cap or a label only (N-terminal biotin on a linker: ado-ado)

| Binder | pKd |
| --- | --- |
| QGPVETESVV [SLC45A4, Q5BKX6] | below the threshold |
| TKGPRGPTRV [SAPCD1, Q5SSQ6] | below the threshold |

Target: NHERF4_2, Q86UT5
Sequence (Q86UT5 220-308): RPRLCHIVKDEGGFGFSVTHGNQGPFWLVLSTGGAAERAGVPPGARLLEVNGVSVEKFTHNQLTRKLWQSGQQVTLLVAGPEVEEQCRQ
Experiment: holdup assay
Design: key: below the threshold = too weak to quantify, mostly under pKd 3.1 to 4
Conditions: plain residues with an end cap or a label only (N-terminal biotin on a linker: ado-ado)

| Binder | pKd |
| --- | --- |
| QGPVETESVV [SLC45A4, Q5BKX6] | below the threshold |
| TKGPRGPTRV [SAPCD1, Q5SSQ6] | below the threshold |

Target: T1, LNX2_2, Q8N448
T1 sequence (Q8N448 334-432, limits assumed, looked up): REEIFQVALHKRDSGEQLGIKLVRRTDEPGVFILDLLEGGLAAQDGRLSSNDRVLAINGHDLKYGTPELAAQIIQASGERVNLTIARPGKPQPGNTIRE
Experiment: holdup assay
Design: key: below the threshold = too weak to quantify, mostly under pKd 3.1 to 4
Conditions: plain residues with an end cap or a label only (N-terminal biotin on a linker: ado-ado)

| Binder | pKd |
| --- | --- |
| QGPVETESVV [SLC45A4, Q5BKX6] | 4.31 |
| TKGPRGPTRV [SAPCD1, Q5SSQ6] | 3.87 |

Target: T2, SNTG2, Q9NY99
T2 sequence (Q9NY99 68-166, limits assumed, looked up): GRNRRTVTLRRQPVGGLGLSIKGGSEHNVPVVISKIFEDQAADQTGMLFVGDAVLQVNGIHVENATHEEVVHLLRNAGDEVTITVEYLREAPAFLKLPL
Experiment: holdup assay
Design: key: below the threshold = too weak to quantify, mostly under pKd 3.1 to 4
Conditions: plain residues with an end cap or a label only (N-terminal biotin on a linker: ado-ado)

| Binder | pKd |
| --- | --- |
| QGPVETESVV [SLC45A4, Q5BKX6] | 4.34 |
| TKGPRGPTRV [SAPCD1, Q5SSQ6] | 4.18 |

Target: CASK, O14936
Sequence (O14936 487-570): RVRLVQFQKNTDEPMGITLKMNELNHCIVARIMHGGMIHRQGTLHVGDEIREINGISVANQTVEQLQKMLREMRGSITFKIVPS
Experiment: holdup assay
Design: key: below the threshold = too weak to quantify, mostly under pKd 3.1 to 4
Conditions: plain residues with an end cap or a label only (N-terminal biotin on a linker: ado-ado)

| Binder | pKd |
| --- | --- |
| QGPVETESVV [SLC45A4, Q5BKX6] | below the threshold |
| TKGPRGPTRV [SAPCD1, Q5SSQ6] | below the threshold |

Target: T3, PTPN13_1, Q12923
T3 sequence (Q12923 1088-1188, limits assumed, looked up): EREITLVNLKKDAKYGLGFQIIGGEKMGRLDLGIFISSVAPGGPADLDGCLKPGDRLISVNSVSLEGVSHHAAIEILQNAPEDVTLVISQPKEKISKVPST
Experiment: holdup assay
Design: key: below the threshold = too weak to quantify, mostly under pKd 3.1 to 4
Conditions: plain residues with an end cap or a label only (N-terminal biotin on a linker: ado-ado)

| Binder | pKd |
| --- | --- |
| QGPVETESVV [SLC45A4, Q5BKX6] | below the threshold |
| TKGPRGPTRV [SAPCD1, Q5SSQ6] | below the threshold |

Target: GRASP, Q7Z6J2
Sequence (Q7Z6J2 96-193): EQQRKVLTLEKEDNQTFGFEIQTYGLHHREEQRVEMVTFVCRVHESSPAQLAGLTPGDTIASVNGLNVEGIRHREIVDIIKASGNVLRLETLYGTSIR
Experiment: holdup assay
Design: key: below the threshold = too weak to quantify, mostly under pKd 3.1 to 4
Conditions: plain residues with an end cap or a label only (N-terminal biotin on a linker: ado-ado)

| Binder | pKd |
| --- | --- |
| QGPVETESVV [SLC45A4, Q5BKX6] | 3.48 |
| TKGPRGPTRV [SAPCD1, Q5SSQ6] | 4.59 |

Target: NHERF4_1, Q86UT5-2
Sequence (Q86UT5 other isoform, or with tags, fused parts or gaps): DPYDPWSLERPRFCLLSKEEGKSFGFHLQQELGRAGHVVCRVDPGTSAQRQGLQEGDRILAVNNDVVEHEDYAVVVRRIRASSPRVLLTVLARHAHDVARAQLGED
Experiment: holdup assay
Design: key: below the threshold = too weak to quantify, mostly under pKd 3.1 to 4
Conditions: plain residues with an end cap or a label only (N-terminal biotin on a linker: ado-ado)

| Binder | pKd |
| --- | --- |
| QGPVETESVV [SLC45A4, Q5BKX6] | 3.48 |
| TKGPRGPTRV [SAPCD1, Q5SSQ6] | below the threshold |

Target: T4, SHANK1, Q9Y566
T4 sequence (Q9Y566 658-767, limits assumed, looked up): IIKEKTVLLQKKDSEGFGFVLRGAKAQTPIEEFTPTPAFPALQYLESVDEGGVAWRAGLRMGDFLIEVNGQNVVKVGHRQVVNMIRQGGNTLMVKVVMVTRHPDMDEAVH
Experiment: holdup assay
Design: key: below the threshold = too weak to quantify, mostly under pKd 3.1 to 4
Conditions: plain residues with an end cap or a label only (N-terminal biotin on a linker: ado-ado)

| Binder | pKd |
| --- | --- |
| QGPVETESVV [SLC45A4, Q5BKX6] | below the threshold |
| TKGPRGPTRV [SAPCD1, Q5SSQ6] | 4.26 |

Target: GRID2IP_2, A4D2P6
Sequence (A4D2P6 272-370): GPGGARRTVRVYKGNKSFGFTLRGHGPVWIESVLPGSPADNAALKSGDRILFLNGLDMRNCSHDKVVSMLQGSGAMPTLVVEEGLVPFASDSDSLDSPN
Experiment: holdup assay
Design: key: below the threshold = too weak to quantify, mostly under pKd 3.1 to 4
Conditions: plain residues with an end cap or a label only (N-terminal biotin on a linker: ado-ado)

| Binder | pKd |
| --- | --- |
| QGPVETESVV [SLC45A4, Q5BKX6] | 3.55 |
| TKGPRGPTRV [SAPCD1, Q5SSQ6] | 4.58 |

Target: LDB3, O75112
Sequence (O75112 1-94): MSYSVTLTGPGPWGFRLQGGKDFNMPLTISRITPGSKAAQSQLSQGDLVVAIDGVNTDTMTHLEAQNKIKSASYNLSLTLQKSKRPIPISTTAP
Experiment: holdup assay
Design: key: below the threshold = too weak to quantify, mostly under pKd 3.1 to 4
Conditions: plain residues with an end cap or a label only (N-terminal biotin on a linker: ado-ado)

| Binder | pKd |
| --- | --- |
| QGPVETESVV [SLC45A4, Q5BKX6] | below the threshold |
| TKGPRGPTRV [SAPCD1, Q5SSQ6] | below the threshold |

Target: T5, DFNB31_1, Q9P202
T5 sequence (Q9P202 135-233, limits assumed, looked up): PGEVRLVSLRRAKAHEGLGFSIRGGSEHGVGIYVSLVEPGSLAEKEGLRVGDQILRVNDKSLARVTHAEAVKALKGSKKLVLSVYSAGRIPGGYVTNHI
Experiment: holdup assay
Design: key: below the threshold = too weak to quantify, mostly under pKd 3.1 to 4
Conditions: plain residues with an end cap or a label only (N-terminal biotin on a linker: ado-ado)

| Binder | pKd |
| --- | --- |
| QGPVETESVV [SLC45A4, Q5BKX6] | 3.66 |
| TKGPRGPTRV [SAPCD1, Q5SSQ6] | 3.52 |

Target: T6, PARD3B_1, Q8TEW8
T6 sequence (Q8TEW8 196-299, limits assumed, looked up): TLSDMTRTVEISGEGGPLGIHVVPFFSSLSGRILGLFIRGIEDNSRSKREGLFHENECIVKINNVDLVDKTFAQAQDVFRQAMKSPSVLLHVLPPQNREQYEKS
Experiment: holdup assay
Design: key: below the threshold = too weak to quantify, mostly under pKd 3.1 to 4
Conditions: plain residues with an end cap or a label only (N-terminal biotin on a linker: ado-ado)

| Binder | pKd |
| --- | --- |
| QGPVETESVV [SLC45A4, Q5BKX6] | below the threshold |
| TKGPRGPTRV [SAPCD1, Q5SSQ6] | below the threshold |

Target: T7, MPP2, Q14168
T7 sequence (Q14168 180-250, limits assumed, looked up): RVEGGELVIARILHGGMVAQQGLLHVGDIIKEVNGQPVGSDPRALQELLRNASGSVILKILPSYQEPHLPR
Experiment: holdup assay
Design: key: below the threshold = too weak to quantify, mostly under pKd 3.1 to 4
Conditions: plain residues with an end cap or a label only (N-terminal biotin on a linker: ado-ado)

| Binder | pKd |
| --- | --- |
| QGPVETESVV [SLC45A4, Q5BKX6] | below the threshold |
| TKGPRGPTRV [SAPCD1, Q5SSQ6] | below the threshold |

Target: T8, PDZD7_3, Q9H5P4
T8 sequence (Q9H5P4 857-944, limits assumed, looked up): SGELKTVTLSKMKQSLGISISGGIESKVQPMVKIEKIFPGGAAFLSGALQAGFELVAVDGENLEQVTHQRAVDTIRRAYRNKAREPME
Experiment: holdup assay
Design: key: below the threshold = too weak to quantify, mostly under pKd 3.1 to 4
Conditions: plain residues with an end cap or a label only (N-terminal biotin on a linker: ado-ado)

| Binder | pKd |
| --- | --- |
| QGPVETESVV [SLC45A4, Q5BKX6] | 4.56 |
| TKGPRGPTRV [SAPCD1, Q5SSQ6] | 4.74 |

Target: ARHGEF12, Q9NZN5-2
Sequence (Q9NZN5 other isoform, or with tags, fused parts or gaps): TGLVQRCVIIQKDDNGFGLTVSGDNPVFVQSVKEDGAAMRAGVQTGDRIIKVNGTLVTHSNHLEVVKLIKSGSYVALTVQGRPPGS
Experiment: holdup assay
Design: key: below the threshold = too weak to quantify, mostly under pKd 3.1 to 4
Conditions: plain residues with an end cap or a label only (N-terminal biotin on a linker: ado-ado)

| Binder | pKd |
| --- | --- |
| QGPVETESVV [SLC45A4, Q5BKX6] | below the threshold |
| TKGPRGPTRV [SAPCD1, Q5SSQ6] | 4.24 |

Target: SCRIB_3, Q14160
Sequence (Q14160 999-1103): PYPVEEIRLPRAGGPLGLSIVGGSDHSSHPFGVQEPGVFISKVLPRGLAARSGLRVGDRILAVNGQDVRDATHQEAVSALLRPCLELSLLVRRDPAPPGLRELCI
Experiment: holdup assay
Design: key: below the threshold = too weak to quantify, mostly under pKd 3.1 to 4
Conditions: plain residues with an end cap or a label only (N-terminal biotin on a linker: ado-ado)

| Binder | pKd |
| --- | --- |
| QGPVETESVV [SLC45A4, Q5BKX6] | 3.9 |
| TKGPRGPTRV [SAPCD1, Q5SSQ6] | 3.78 |

Target: IL16_1, Q14005
Sequence (Q14005 210-306): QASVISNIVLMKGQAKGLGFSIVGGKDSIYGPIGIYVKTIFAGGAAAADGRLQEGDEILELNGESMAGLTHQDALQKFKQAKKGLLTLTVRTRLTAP
Experiment: holdup assay
Design: key: below the threshold = too weak to quantify, mostly under pKd 3.1 to 4
Conditions: plain residues with an end cap or a label only (N-terminal biotin on a linker: ado-ado)

| Binder | pKd |
| --- | --- |
| QGPVETESVV [SLC45A4, Q5BKX6] | 4.95 |
| TKGPRGPTRV [SAPCD1, Q5SSQ6] | below the threshold |

Target: T9, GRIP1_4, Q9Y3R0
T9 sequence (Q9Y3R0 467-571, limits assumed, looked up): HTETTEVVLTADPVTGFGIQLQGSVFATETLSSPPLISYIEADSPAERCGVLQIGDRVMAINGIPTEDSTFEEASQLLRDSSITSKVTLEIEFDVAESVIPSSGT
Experiment: holdup assay
Design: key: below the threshold = too weak to quantify, mostly under pKd 3.1 to 4
Conditions: plain residues with an end cap or a label only (N-terminal biotin on a linker: ado-ado)

| Binder | pKd |
| --- | --- |
| QGPVETESVV [SLC45A4, Q5BKX6] | below the threshold |
| TKGPRGPTRV [SAPCD1, Q5SSQ6] | below the threshold |

Target: T10, SIPA1L2, Q9P2F8
T10 sequence (Q9P2F8 945-1036, limits assumed, looked up): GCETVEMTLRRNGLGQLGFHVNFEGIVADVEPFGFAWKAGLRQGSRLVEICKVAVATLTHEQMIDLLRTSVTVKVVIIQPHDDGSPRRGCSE
Experiment: holdup assay
Design: key: below the threshold = too weak to quantify, mostly under pKd 3.1 to 4
Conditions: plain residues with an end cap or a label only (N-terminal biotin on a linker: ado-ado)

| Binder | pKd |
| --- | --- |
| QGPVETESVV [SLC45A4, Q5BKX6] | below the threshold |
| TKGPRGPTRV [SAPCD1, Q5SSQ6] | below the threshold |

Target: MAGI1_1, Q96QZ7
Sequence (Q96QZ7 1-106): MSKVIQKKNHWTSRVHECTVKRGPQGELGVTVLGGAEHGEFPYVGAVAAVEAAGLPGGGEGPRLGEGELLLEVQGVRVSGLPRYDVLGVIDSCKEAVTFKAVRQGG
Experiment: holdup assay
Design: key: below the threshold = too weak to quantify, mostly under pKd 3.1 to 4
Conditions: plain residues with an end cap or a label only (N-terminal biotin on a linker: ado-ado)

| Binder | pKd |
| --- | --- |
| QGPVETESVV [SLC45A4, Q5BKX6] | below the threshold |
| TKGPRGPTRV [SAPCD1, Q5SSQ6] | below the threshold |

Target: T11, DLG3_3, Q92796
T11 sequence (Q92796 374-475, limits assumed, looked up): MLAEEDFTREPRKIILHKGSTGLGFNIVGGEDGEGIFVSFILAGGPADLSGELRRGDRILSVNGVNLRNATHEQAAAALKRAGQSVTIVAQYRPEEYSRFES
Experiment: holdup assay
Design: key: below the threshold = too weak to quantify, mostly under pKd 3.1 to 4
Conditions: plain residues with an end cap or a label only (N-terminal biotin on a linker: ado-ado)

| Binder | pKd |
| --- | --- |
| QGPVETESVV [SLC45A4, Q5BKX6] | below the threshold |
| TKGPRGPTRV [SAPCD1, Q5SSQ6] | 4.44 |

Target: NHERF2_2, Q15599
Sequence (Q15599 142-238): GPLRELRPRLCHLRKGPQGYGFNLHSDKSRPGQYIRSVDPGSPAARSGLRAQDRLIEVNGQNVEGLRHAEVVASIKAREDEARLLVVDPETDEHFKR
Experiment: holdup assay
Design: key: below the threshold = too weak to quantify, mostly under pKd 3.1 to 4
Conditions: plain residues with an end cap or a label only (N-terminal biotin on a linker: ado-ado)

| Binder | pKd |
| --- | --- |
| QGPVETESVV [SLC45A4, Q5BKX6] | 3.63 |
| TKGPRGPTRV [SAPCD1, Q5SSQ6] | below the threshold |

Target: Inadl_9, Q8NI35
Sequence (Q8NI35 1530-1615): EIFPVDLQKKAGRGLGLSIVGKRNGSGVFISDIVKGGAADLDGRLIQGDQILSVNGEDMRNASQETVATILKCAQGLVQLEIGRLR
Experiment: holdup assay
Design: key: below the threshold = too weak to quantify, mostly under pKd 3.1 to 4
Conditions: plain residues with an end cap or a label only (N-terminal biotin on a linker: ado-ado)

| Binder | pKd |
| --- | --- |
| QGPVETESVV [SLC45A4, Q5BKX6] | 3.75 |
| TKGPRGPTRV [SAPCD1, Q5SSQ6] | 4.11 |

Target: MAGI2_6, Q86UL8
Sequence (Q86UL8 1141-1229): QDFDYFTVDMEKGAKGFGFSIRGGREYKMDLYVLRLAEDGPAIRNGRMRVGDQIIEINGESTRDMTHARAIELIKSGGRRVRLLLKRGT
Experiment: holdup assay
Design: key: below the threshold = too weak to quantify, mostly under pKd 3.1 to 4
Conditions: plain residues with an end cap or a label only (N-terminal biotin on a linker: ado-ado)

| Binder | pKd |
| --- | --- |
| QGPVETESVV [SLC45A4, Q5BKX6] | 3.55 |
| TKGPRGPTRV [SAPCD1, Q5SSQ6] | below the threshold |
